# Assay results taken from paper PMC6957213.
# What was measured:
# [1] = test system: T1, GdhR (Neisseria gonorrhoeae FA19), ORF:8165ddaf; assay: competition; details: EMSA: 12 fmol DIG-DNA in 20 uL, 20 mM Hepes pH 7.6, 1 mM EDTA, 10 mM (NH4)2SO4, 1 mM DTT, 0.2% Tween-20, 30 mM KCl, 1.25 ng/uL calf thymus DNA, 25 min, 30 C
# T1 sequence: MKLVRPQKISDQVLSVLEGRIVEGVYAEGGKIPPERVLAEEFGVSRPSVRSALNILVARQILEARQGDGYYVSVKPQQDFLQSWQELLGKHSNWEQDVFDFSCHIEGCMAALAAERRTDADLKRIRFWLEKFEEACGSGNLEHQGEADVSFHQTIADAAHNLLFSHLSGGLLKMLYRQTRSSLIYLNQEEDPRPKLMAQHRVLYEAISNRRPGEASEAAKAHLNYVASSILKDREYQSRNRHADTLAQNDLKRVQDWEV
# [2] = test system: T1, GdhR (Neisseria gonorrhoeae FA19), ORF:8165ddaf; assay: EMSA; details: EMSA: 12 fmol DIG-DNA in 20 uL, 20 mM Hepes pH 7.6, 1 mM EDTA, 10 mM (NH4)2SO4, 1 mM DTT, 0.2% Tween-20, 30 mM KCl, 1.25 ng/uL calf thymus DNA, 25 min, 30 C
sequence,measurement,setting,value
CGTAGGGTGCGAGCGTTAATCGGAATTACTGGGCGTAAAGCGGGCGCAGACGGTTACTTAAGCAGGATGTGAAATCCCCGGGCTCAACCCGGGAACTGCGTTCTGAACTGGGTGACTCGAGTGTGTCAGAGGGAGGTGGAATTCCACGTGTAGCAGTGAAATGCGTAGAGATGTGGAGGAATACCGATGG (double strand) [16S rRNA gene fragment],binding,[1],no binding
"GTGGACGGGGACGGCGCGGTATTCGTGCCGCCGGAAGAATGCTGAAAATGCCGTCTGAAGCCTTTCGGGCGGCTTTTTCTACACGCCCCTTTCCCACACTCCCTCCGCCGCATCATCACCATCCTTAACCCGCATTAATAGCCATTATCGATAAAATGCTTGACCGATTACATAAGATTACGTAAAGTGTGCAAACGCATAATAATTGGTCTTACCAATTTATCTTTTAACCAAAATATCGGGTGTGCGGGATTTGAACGTCTTTCCAAACCTCGACGCGCCTTATGATGC (double strand) [lctP promoter, unlabeled competitor]",binding,[1],binds
GTGGACGGGGACGGCGCGGTATTCGTGCCGCCGGAAGAATGCTGAAAATGCCGTCTGAAGCCTTTCGGGCGGCTTTTTCTACACGCCCCTTTCCCACACTCCCTCCGCCGCATCATCACCATCCTTAACCCGCATTAATAGCCATTATCGATAAAATGCTTGACCGATTACATAAGATTACGTAAAGTGTGCAAACGCATATCTTTTAACCAAAATATCGGGTGTGCGGGATTTGAACGTCTTTCCAAACCTCGACGCGCCTTATGATGC (double strand) [lctPΔFadR EMSA probe],binding,[2],binds more weakly
